Molecular target: T1, β’’ subunit of the Sinapis alba plastid-encoded RNA polymerase (SaPEP) (Sinapis alba, UniProt Q9THV5 1-1384)
T1 construct: source: native, in the PEP purified from Sinapis alba cotyledon chloroplasts (heparin, MonoQ, Superose 6)
T1 sequence (looked up): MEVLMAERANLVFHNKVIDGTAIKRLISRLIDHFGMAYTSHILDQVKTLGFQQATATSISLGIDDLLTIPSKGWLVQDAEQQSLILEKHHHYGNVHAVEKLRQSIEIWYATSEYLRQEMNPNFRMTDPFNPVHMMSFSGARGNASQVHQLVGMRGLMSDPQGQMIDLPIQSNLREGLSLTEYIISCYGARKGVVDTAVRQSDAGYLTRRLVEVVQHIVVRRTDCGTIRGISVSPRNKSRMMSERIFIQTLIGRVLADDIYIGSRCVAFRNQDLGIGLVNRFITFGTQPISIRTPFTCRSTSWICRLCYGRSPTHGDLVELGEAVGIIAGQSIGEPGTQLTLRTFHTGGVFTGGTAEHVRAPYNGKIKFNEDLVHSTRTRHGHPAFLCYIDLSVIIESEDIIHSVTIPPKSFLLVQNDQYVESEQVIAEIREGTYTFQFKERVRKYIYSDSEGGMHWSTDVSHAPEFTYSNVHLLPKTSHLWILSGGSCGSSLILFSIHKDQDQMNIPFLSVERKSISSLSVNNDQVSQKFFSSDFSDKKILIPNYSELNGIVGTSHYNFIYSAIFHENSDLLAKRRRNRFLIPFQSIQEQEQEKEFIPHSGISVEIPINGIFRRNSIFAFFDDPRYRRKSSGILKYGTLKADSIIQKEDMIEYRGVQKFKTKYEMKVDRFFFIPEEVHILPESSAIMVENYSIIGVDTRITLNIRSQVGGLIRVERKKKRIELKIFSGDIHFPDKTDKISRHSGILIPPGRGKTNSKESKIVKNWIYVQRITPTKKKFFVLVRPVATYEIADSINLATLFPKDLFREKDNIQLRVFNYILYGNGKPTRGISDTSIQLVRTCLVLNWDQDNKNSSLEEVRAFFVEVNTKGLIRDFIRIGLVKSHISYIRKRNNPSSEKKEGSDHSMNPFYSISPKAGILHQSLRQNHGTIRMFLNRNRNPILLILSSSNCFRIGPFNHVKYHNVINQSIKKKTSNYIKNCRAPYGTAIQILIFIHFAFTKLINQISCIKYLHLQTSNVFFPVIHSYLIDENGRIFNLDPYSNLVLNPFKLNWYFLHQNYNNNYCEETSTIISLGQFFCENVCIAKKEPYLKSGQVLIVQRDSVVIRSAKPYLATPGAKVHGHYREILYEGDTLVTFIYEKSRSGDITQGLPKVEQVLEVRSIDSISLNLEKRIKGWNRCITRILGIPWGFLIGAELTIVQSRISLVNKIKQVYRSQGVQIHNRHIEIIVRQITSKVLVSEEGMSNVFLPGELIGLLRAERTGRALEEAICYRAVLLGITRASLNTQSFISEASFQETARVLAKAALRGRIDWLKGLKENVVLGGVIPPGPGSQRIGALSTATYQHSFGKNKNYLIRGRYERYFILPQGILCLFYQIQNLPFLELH
Assay: cryo-EM structure; native 21-subunit SaPEP purified from S. alba cotyledon chloroplasts; graphene oxide grids; consensus map 3.0 Å, multibody and composite maps; open conformation
Conditions: both partners purified

B1: β subunit of the Sinapis alba plastid-encoded RNA polymerase (SaPEP) (natural protein, UniProt P46818 1-1078, looked up)
chain: MINAKKMLGDGKEGTSTIPGFNQIQFEGFYRFIDQGLIEELSKFPKIEDIDHEIEFQLFVETYQLVEPLIKERDAVYESLTYSSELYVSAGLIWKTNRNMQEQRIFIGNIPLMNSLGTSIVNGIYRVVINQILQSPGIYYQSELDHNGISVYTGTIISDWGGRLELEIDKKARIWARVSRKQKISILVLSSAMGSNLREILENVCYPEIFLSFLTDKEKKKIGSKENAILEFYQQFSCVGGDPIFSESLCKELQKKFFHQRCELGRIGRRNINWRLNLNIPQNNIFLLPRDILAAADHLIGMKFGMGTLDDMNHLKNKRIRSVADLLQDQLGLALARLENVVKGTIGGAIRHKLIPPTQNLVTSTPLTTTYESFFGFHPLSQVLDRTNPLTQIVHGRKLSYLGPGGLTGRTANFRIRDIHPSHYGRICPIDTSEGINVGLIGSLSIHARIGDWGSLESPFYELVEKSKKAQIRMLFLSPSQDEYYMIAAGNSLALNRGIQEEQVVPARYRQEFLTIAWEEVHLRSIFPFQYFSIGASLIPFIEHNDANRALMSSNMQRQAVPLSRSEKCIVGTGLERQVALDSGVPAIAEHEGKILYTDTEKIILSGNENTLSIPLIMYQRSNKNTCMHQKPQVPRGKCIKKGQILADGAATVGGELALGKNVLVAYMPWEGYNFEDAVLISECLVYGDIYTSFHIRKYEIQTHVTTQGPERITKEIPHLEGRLLRNLDKNGIVMLGSWVETGDILVGKLTPQVAKESSYAPEDRLLRAILGIQVSTSKETCLKLPIGGRGRVIDVRWVQKKGGSSYNPEIIRVYISQKREIKVGDKVAGRHGNKGIISKILPRQDMPYLQDGRPVDMVFNPLGVPSRMNVGQIFECSLGLAGSLLDRHYRIAPFDERYEQEASRKLVFSELYEASKQTANPWVFEPEYPGKSRIFDGRTGDPFEQPVIIGKPYILKLIHQVDDKIHGRSSGHYALVTQQPLRGRSKQGGQRVGEMEVWALEGFGVAHILQEMLTYKSDHIRARQEVLGTTIIGGTIPKPEDAPESFRLLVRELRSLALELNHFLVSEKNFQINRKEV
notes: plastid-encoded β subunit of the S. alba PEP catalytic core; source: native, in the PEP purified from Sinapis alba cotyledon chloroplasts (heparin, MonoQ, Superose 6)
Does B1 bind?
Result: binds

Reference: doi:10.1101/2024.10.25.620210, “The plastid-encoded RNA polymerase structures a logistic chain for light-induced photosynthesis” (bioRxiv, 2024)
